The RNAGym collection of RNA variant scans (doi:10.1021/acssynbio.7b00057)

B1: Pistol ribozyme (parent)
chain: GGGUCGUUGUUCCAUAAUCGCGUGGAUAUGGCACGCAAGUUUCUACCGGGCACCGUAAAUGUCCGACUGGAGCCGUUCGGGCGGCUAUAAACAGACCUCAGGCCCGAAGCGUGGCGGCACCUGCCGCCGGUGGUAAAAAAGAUCGGAAGAGCACACGUCU

Variants of: B1
Experiment: aptazyme ON/OFF ratio, guanine; higher = stronger switching; co-transcriptional cleavage with and without guanine

Variant | aptazyme ON/OFF ratio
U7G G9C U10A C12G C13G | 1.1
U7G G9C U10A C12G C13U | 1.28
U7G G9C U10A C12G C13A | 1.1
U7G G9C U10A U11A C12U C13G | 1.25
U7G G9C U10A U11A C12U C13A | 1.29
U7G G9C U10A U11A C12U C13U | 1.29
U7G G9C U11A C12U C13U | 1.32
U7G G9C U11A C12U C13G | 1.33
U7G G9C U11A C12U C13A | 1.42
U7G G9C U11C C12A C13G | 1.28
U7G G9C U11C C12A C13U | 1.5
U7G G9C U11C C12A C13A | 1.42
U7G G9C U10G U11G C12G C13G | 1.06
U7G G9C U10G U11G C12G C13U | 1.12
U7G G9C U10G U11G C12G C13A | 1.11
U7G G9U U10A U11A C12U C13G | 1.29
U7G G9U U10A U11A C12U C13U | 1.28
U7G G9U U10A U11A C12U C13A | 0.962
U7G G9U U10C C12G C13U | 1.29
U7G G9U U10C C12G C13A | 1.27
U7G G9U U10C C12G C13G | 1.22

Variant | aptazyme ON/OFF ratio
U7G G9U U10A U11A C12U | 1.54
U7G G9U U10A U11A C12G | 1.41
U7G G9U U10A U11A C12A | 1.3
U7G G9C U10A U11C C12A C13G | 1.23
U7G G9C U10A U11C C12A C13A | 1.34
U7G G9C U10A U11C C12A C13U | 1.36
U7G G9U U10A U11A C12A C13U | 1.38
U7G G9U U10A U11A C12A C13G | 1.26
U7G G9U U10A U11A C12A C13A | 1.17
U7G G9C U10A C12U | 1.18
U7G G9C U10A C12G | 1.4
U7G G9C U10G C12A | 1.65
U7G G9C U10G C12U | 1.38
U7G G9C U10G C12G | 1.51
U7G G9C U10C C12G C13A | 1.31
U7G G9C U10C C12G C13G | 1.09
U7G G9C U10C C12G C13U | 1.23
U7G G9C U11G C12G C13A | 1.17
U7G G9C U11G C12G C13G | 1.36
U7G G9C U11G C12G C13U | 1.29
U7G G9C U10A U11G C12G C13A | 1.1

Variant | aptazyme ON/OFF ratio
U7G G9C U10A U11G C12G C13G | 1.08
U7G G9C U10A U11G C12G C13U | 1.12
U7G G9C U10G C12G C13G | 1.18
U7G G9C U10G C12G C13A | 1.28
U7G G9C U10G C12G C13U | 1.31
U7G G9C U11A C13G | 1.19
U7G G9C U11A C13U | 1.62
U7G G9C U11A C13A | 1.41
U7G G9C U10C C12U | 1.7
U7G G9C U10C C12A | 1.5
U7G G9C U10C C12G | 1.29
U7G G9C U10A U11A C12A C13U | 1.29
U7G G9C U10A U11A C12A C13A | 1.36
U7G G9C U10A U11A C12A C13G | 1.15
U7G G9C U10C U11C C12U C13A | 1.03
U7G G9C U10C U11C C12U C13G | 1.07
U7G G9C U10C U11C C12U C13U | 1.11
U7G G9C U10G U11C C13G | 1.16
U7G G9C U10G U11C C13A | 1.24
U7G G9C U10G U11C C13U | 1.15
U7G G9C U10C U11G C12U C13U | 1.34

Variant | aptazyme ON/OFF ratio
U7G G9C U10C U11G C12U C13G | 1.26
U7G G9C U10C U11G C12U C13A | 1.33
U7G G9U U10A U11G C13A | 1.13
U7G G9U U10A U11G C13G | 1.15
U7G G9U U10A U11G C13U | 1.29
U7G G9C U10A U11G C12U C13A | 1.18
U7G G9C U10A U11G C12U C13U | 1.26
U7G G9C U10A U11G C12U C13G | 1.2
U7G G9U U10C C13G | 1.1
U7G G9U U10C C13A | 1.37
U7G G9U U10C C13U | 1.66
U7G G9C U10G U11C C12G C13G | 1.07
U7G G9C U10G U11C C12G C13U | 1.21
U7G G9C U10G U11C C12G C13A | 1.27
U7G G9U U10A U11C C12G C13U | 1.27
U7G G9U U10A U11C C12G C13A | 1.22
U7G G9U U10A U11C C12G C13G | 1.04
U7G G9C U10C U11G C12G | 1.1
U7G G9C U10C U11G C12U | 1.57
U7G G9C U10C U11G C12A | 1.14
